According to US10800847:

How the values were obtained:
[1] = molecular target: HLA-B*2708 (B27) single antigen on Luminex beads (human); experiment: Luminex single antigen, regular beads (#7), IVIg 1:4
[2] = molecular target: HLA-B*4701 (B47) single antigen on Luminex beads (human); experiment: as above
[3] = molecular target: HLA-B*4601 (B46) single antigen on Luminex beads (human); experiment: as above
[4] = molecular target: HLA-B*4006 (B61) single antigen on Luminex beads (human); experiment: as above
[5] = molecular target: HLA-B*3501 (B35) single antigen on Luminex beads (human); experiment: as above
[6] = molecular target: HLA-B*4101 (B41) single antigen on Luminex beads (human); experiment: as above
[7] = molecular target: HLA-B*3701 (B37) single antigen on Luminex beads (human); experiment: as above
[8] = molecular target: HLA-B*3901 (B39) single antigen on Luminex beads (human); experiment: as above
[9] = molecular target: HLA-B*4402 (B44) single antigen on Luminex beads (human); experiment: as above
[10] = molecular target: HLA-B*4501 (B45) single antigen on Luminex beads (human); experiment: as above
[11] = molecular target: HLA-B*4201 (B42) single antigen on Luminex beads (human); experiment: as above
[12] = molecular target: HLA-B*4403 (B44) single antigen on Luminex beads (human); experiment: as above
[13] = molecular target: HLA-B*3801 (B38) single antigen on Luminex beads (human); experiment: as above
[14] = molecular target: HLA-B*4001 (B60) single antigen on Luminex beads (human); experiment: as above
[15] = molecular target: Albumin on negative control beads (serum albumin, HSA/BSA) (human or bovine); experiment: Luminex, iBead MFI against regular bead MFI, 1:4
[16] = molecular target: HLA-B*2708 (B27) single antigen on Luminex beads (human); experiment: Luminex single antigen, iBead vs regular bead, IVIg 1:4
[17] = molecular target: HLA-B*4701 (B47) single antigen on Luminex beads (human); experiment: as above
[18] = molecular target: HLA-B*4002 (B61) single antigen on Luminex beads (human); experiment: as above
[19] = molecular target: HLA-B*4601 (B46) single antigen on Luminex beads (human); experiment: as above
[20] = molecular target: HLA-B*4006 (B61) single antigen on Luminex beads (human); experiment: as above
[21] = molecular target: HLA-B*3501 (B35) single antigen on Luminex beads (human); experiment: as above
[22] = molecular target: HLA-B*4101 (B41) single antigen on Luminex beads (human); experiment: as above
[23] = molecular target: HLA-B*3701 (B37) single antigen on Luminex beads (human); experiment: as above
[24] = molecular target: HLA-B*3901 (B39) single antigen on Luminex beads (human); experiment: as above
[25] = molecular target: HLA-B*4402 (B44) single antigen on Luminex beads (human); experiment: as above
[26] = molecular target: HLA-B*4403 (B44) single antigen on Luminex beads (human); experiment: as above
[27] = molecular target: HLA-B*3801 (B38) single antigen on Luminex beads (human); experiment: as above
[28] = molecular target: HLA-B*4001 (B60) single antigen on Luminex beads (human); experiment: as above
[29] = molecular target: HLA-B*2705 (B27) single antigen on Luminex beads (human); experiment: as above
[30] = molecular target: HLA-A*0301 (A3) on single antigen beads (human) (UniProt P04439); experiment: Luminex single antigen beads, regular beads (#7), 1:4
[31] = molecular target: Albumin on negative control beads (serum albumin, HSA/BSA) (human or bovine); experiment: as above
[32] = molecular target: HLA-B*2708 (B27) single antigen on Luminex beads (human); experiment: Luminex single antigen, iBeads (#6), IVIg 1:4
[33] = molecular target: HLA-B*4701 (B47) single antigen on Luminex beads (human); experiment: Luminex single antigen, iBeads (#6), IVIg 1:4
[34] = molecular target: HLA-B*4002 (B61) single antigen on Luminex beads (human); experiment: Luminex single antigen, iBeads (#6), IVIg 1:4
[35] = molecular target: HLA-B*4601 (B46) single antigen on Luminex beads (human); experiment: Luminex single antigen, iBeads (#6), IVIg 1:4
[36] = molecular target: HLA-B*4006 (B61) single antigen on Luminex beads (human); experiment: Luminex single antigen, iBeads (#6), IVIg 1:4
[37] = molecular target: HLA-B*3501 (B35) single antigen on Luminex beads (human); experiment: Luminex single antigen, iBeads (#6), IVIg 1:4
[38] = molecular target: HLA-B*4101 (B41) single antigen on Luminex beads (human); experiment: Luminex single antigen, iBeads (#6), IVIg 1:4
[39] = molecular target: HLA-B*3701 (B37) single antigen on Luminex beads (human); experiment: Luminex single antigen, iBeads (#6), IVIg 1:4
[40] = molecular target: HLA-B*3901 (B39) single antigen on Luminex beads (human); experiment: Luminex single antigen, iBeads (#6), IVIg 1:4
[41] = molecular target: HLA-B*4402 (B44) single antigen on Luminex beads (human); experiment: Luminex single antigen, iBeads (#6), IVIg 1:4
[42] = molecular target: HLA-B*4501 (B45) single antigen on Luminex beads (human); experiment: Luminex single antigen, iBeads (#6), IVIg 1:4
[43] = molecular target: HLA-B*4201 (B42) single antigen on Luminex beads (human); experiment: Luminex single antigen, iBeads (#6), IVIg 1:4
[44] = molecular target: HLA-B*4403 (B44) single antigen on Luminex beads (human); experiment: Luminex single antigen, iBeads (#6), IVIg 1:4
[45] = molecular target: HLA-B*3801 (B38) single antigen on Luminex beads (human); experiment: Luminex single antigen, iBeads (#6), IVIg 1:4
[46] = molecular target: HLA-B*4001 (B60) single antigen on Luminex beads (human); experiment: Luminex single antigen, iBeads (#6), IVIg 1:4
[47] = molecular target: HLA-B*2705 (B27) single antigen on Luminex beads (human); experiment: Luminex single antigen, iBeads (#6), IVIg 1:4

Sandoglobulin (IVIg, Novartis, Basel, Switzerland) (antibody)
MFI [1]: 13 MFI
MFI [2]: 355 MFI
MFI [3]: 537 MFI
MFI [4]: 765 MFI
MFI [5]: 243 MFI
MFI [6]: 32 MFI
MFI [7]: 1100 MFI
MFI [8]: 0 MFI
MFI [9]: 683 MFI
MFI [10]: 272 MFI
MFI [11]: 0 MFI
MFI [12]: 284 MFI
MFI [13]: 254 MFI
MFI [14]: 237 MFI
Difference % (iBead against regular bead) [15]: -44%
Difference % (iBead against regular bead MFI) [16]: 2220%
Difference % (iBead against regular bead MFI) [17]: 85%
Difference % (iBead against regular bead MFI) [18]: 81%
Difference % (iBead against regular bead MFI) [19]: -12%
Difference % (iBead against regular bead MFI) [20]: -53%
Difference % (iBead against regular bead MFI) [21]: 45%
Difference % (iBead against regular bead MFI) [22]: 469%
Difference % (iBead against regular bead MFI) [23]: -33%
Difference % (iBead against regular bead MFI) [24]: 0%
Difference % (iBead against regular bead MFI) [25]: -33%
Difference % (iBead against regular bead MFI) [26]: 45%
Difference % (iBead against regular bead MFI) [27]: -2%
Difference % (iBead against regular bead MFI) [28]: 73%
Difference % (iBead against regular bead MFI) [29]: 167%
MFI [30]: 2 MFI
MFI [31]: 1200 MFI
MFI [32]: 302 MFI
MFI [33]: 655 MFI
MFI [34]: 242 MFI
MFI [35]: 473 MFI
MFI [36]: 359 MFI
MFI [37]: 352 MFI
MFI [38]: 182 MFI
MFI [39]: 740 MFI
MFI [40]: 0 MFI
MFI [41]: 461 MFI
MFI [42]: 612 MFI
MFI [43]: 86 MFI
MFI [44]: 413 MFI
MFI [45]: 248 MFI
MFI [46]: 409 MFI
MFI [47]: 377 MFI
